Assay results taken from patent publication US10184137B2, “Method of producing isoprene monomer” (AJINOMOTO CO., INC., priority 2014, dated 2019).
Where “and” joins values, the source holds several entries; their conditions need not be identical. Identical values can stand only once.

Columns and labels:
[1] = target: Nitrosopumilus maritimus mevalonate kinase (nmr), wild type, SEQ ID NO:9, N-terminal His-tag (Nitrosopumilus maritimus, UniProt A9A427); assay: Examination of product inhibition on nmr-derived mevalonate kinase; type: biochemical; details: 1 mM mevalonate as substrate, 50 mM ATP
[2] = substrate: Nc1ncnc2c1ncn2[C@@H]1O[C@H](COP(=O)(O)OP(=O)(O)OP(=O)(O)O)[C@@H](O)[C@H]1O; assay: purified protein, by the assay type; type: biochemical, Nitrosopumilus maritimus; details: other: nmr, 5 mM potassium mevalonate, pH 7.6, 30° C., Lineweaver-Burk plot
Procedure: (§1) Each obtained plasmid was used for transformation of E. coli BL21(DE3). […] When OD600 reached approximately 0.5, 0.1 mM IPTG (for cva, mma, nmr, and sce) or 1 mM (for mcl and mpd) of IPTG was added, and then the mixture was kept at 20° C. overnight to induce the target protein. Harvested cells were suspended in buffer solution A (50 mM sodium phosphate, 0.3 M NaCl and 20 mM Imidazol), and then the cells were disrupted with an ultrasonic disruptor (TOMY: UD-201). […] After centrifugation (28,000×g, 30 min), the supernatant was adsorbed onto His-Trap HP (GE Healthcare) to elute the target protein by linear concentration gradient of Imidazol (final concentration 0.5 M). Obtained protein was dialyzed by using an external solution composed of 20 mM Tris-HCl (pH 8.0) containing 1 mM DTT and 50 mM NaCl. Dialyzed protein was designated as purified enzyme. Protein quantity was measured with Bio-RAD protein assay kit and BSA standard condition.
(§2) Decrease in absorbance at 340 nm at 30° C. was measured to determine the enzyme activity. […] Km value was calculated by Lineweaver-Burk plot.
(§3) Measured activity of each enzyme (JABS/min) was presented on Table 9 for the calculation of apparent Km value (Km app.) of each enzyme. Table 10 presents Km app., Vmax, molecular weight of the enzyme protein, protein concentration in the enzyme solution and calculated kcat.

[3] = substrate: Nc1ncnc2c1ncn2[C@@H]1O[C@H](COP(=O)(O)OP(=O)(O)OP(=O)(O)O)[C@@H](O)[C@H]1O; assay: purified protein, by the assay type; type: biochemical, Methanosarcina mazei; details: other: mma, 5 mM potassium mevalonate, pH 7.6, 30° C., Lineweaver-Burk plot
Procedure: as §1, §2, §3

[4] = substrate: Nc1ncnc2c1ncn2[C@@H]1O[C@H](COP(=O)(O)OP(=O)(O)OP(=O)(O)O)[C@@H](O)[C@H]1O; assay: purified protein, by the assay type; type: biochemical, Saccharomyces cerevisiae; details: other: sce, 5 mM potassium mevalonate, pH 7.6, 30° C., Lineweaver-Burk plot
Procedure: as §1, §2, §3

[5] = substrate: Nc1ncnc2c1ncn2[C@@H]1O[C@H](COP(=O)(O)OP(=O)(O)OP(=O)(O)O)[C@@H](O)[C@H]1O; assay: purified protein, by the assay type; details: other: mcl, 5 mM potassium mevalonate, pH 7.6, 30° C., Lineweaver-Burk plot
Procedure: Each obtained plasmid was used for transformation of E. coli BL21(DE3). […] When OD600 reached approximately 0.5, 0.1 mM IPTG (for cva, mma, nmr, and sce) or 1 mM (for mcl and mpd) of IPTG was added, and then the mixture was kept at 20° C. overnight to induce the target protein. […] After centrifugation (28,000×g, 30 min), the supernatant was adsorbed onto His-Trap HP (GE Healthcare) to elute the target protein by linear concentration gradient of Imidazol (final concentration 0.5 M). Obtained protein was dialyzed by using an external solution composed of 20 mM Tris-HCl (pH 8.0) containing 1 mM DTT and 50 mM NaCl. Dialyzed protein was designated as purified enzyme. Protein quantity was measured with Bio-RAD protein assay kit and BSA standard condition.
Decrease in absorbance at 340 nm at 30° C. was measured to determine the enzyme activity. JASCO Corporation's spectrophotometer (V-650) was used in this study. […] Km value was calculated by Lineweaver-Burk plot.

[6] = tested on: mevalonate kinase; assay: Inhibition of each mevalonate kinase by DMAPP, GPP, FPP or DPM; type: biochemical
Procedure: Since GPP and FPP solutions contain methanol, methanol which was needed to keep the same methanol level at the addition to the reaction system was added to the reaction solution, which was designated as control.
Respective effect of the added 5 mM DMAPP, 0.1 mM GPP, and 0.1 mM FPP on the activity of each enzyme was measured. […] Contrarily, mcl-derived enzyme was activated by 5 mM DMAPP and its activity increased by 20% from that of the control.
Activity when 10 μl of each enzyme was added to 1 ml of the reaction system was represented by dABS/min
Effect of 1 mM diphosphomevalonate (DPM) on each enzyme was also studied.

[7] = tested on: mcl-derived mevalonate kinase; assay: Effect of IPP and low-concentration DMAPP on mcl-derived mevalonate kinase activity
[8] = tested on: mevalonate kinase; assay: Expression analysis and activity confirmation of His-tagged mevalonate kinases from pET-21a(+) and pET-28b(+); type: biochemical; details: His-spinTrap eluate after dialysis, 10 μl enzyme solution
Procedure: Each obtained plasmid was used for transformation of E. coli BL21(DE3). […] When OD600 reached approximately 0.5, IPTG was added to the solution to final concentration of 1 mM. It was then cultured overnight at 20° C. Harvested cells were suspended in the buffer solution consisting of 50 mM sodium phosphate, 0.3 M NaCl and 20 mM Imidazol. Then the cells were disrupted with an ultrasonic disruptor (TOMY: UD-201, output level=3.5). After centrifugation (20,000×g, 20 min), disrupted cells were adsorbed to His-spinTrap (GE Healthcare). After washing with the same buffer solution, protein was eluted with the buffer solution consisting of 50 mM sodium phosphate, 0.3 M NaCl and 0.5 M imidazole (pH7.5). Eluate was dialyzed overnight at 4° C. with the external solution composed of 20 mM Tris-HCl (pH7.5) and 50 mM NaCl. Then, enzyme activity of each eluate in the internal dialysis solution was measured.
Activity of the internal dialysate (about 0.2 ml each) was measured with the 10 μl of enzyme solution (Table 8). Enzyme expression level was compared on activity basis between pET-21a(+) and pET-28b(+). […] It is inferred that expression level is higher in pET-28b(+). Therefore, purified enzyme expressed in pET-28b(+) was used in the further examinations.
Values were presented by decrease in absorbance per unit time per 10 μl in the enzyme reaction measurement system (dABS/min/10 μl).
(§4) Decrease in absorbance at 340 nm at 30° C. was measured to determine the enzyme activity. JASCO Corporation's spectrophotometer (V-650) was used in this study. Millimolar extinction coefficient of NADH used in this study was 6.22 mM^−1 cm^−1. […] Km value was calculated by Lineweaver-Burk plot.

[9] = tested on: mevalonate kinase; assay: Examination of product inhibition on each mevalonate kinase (absorbance at 386 nm, PMK addition); type: biochemical; details: 1 mM mevalonate as substrate; in words
Procedure: When decrease in absorbance stopped, purified PMK was added to measure further decrease in absorbance at 386 nm.
FIG. 18 presents the SDS-PAGE profile of the purified PMK. […] Then, absorbance decreased further and finally absorbance at 386 nm decreased to 0.3 in all reaction systems. Therefore, it is inferred that mevalonate is converted into diphosphomevalonate via phosphomevalonate by adding PMK to each MVK.

[10] = tested on: mevalonate kinase; assay: Measurement of activity and Km value of purified mevalonate kinase (PK/LDH coupled, 340 nm); type: biochemical
Procedure: as §1, §4, §3
Activity was indicated by dABS/min when 10 μl of each enzyme was added to 1 ml of reaction solution.

[11] = substrate: Nc1ncnc2c1ncn2[C@@H]1O[C@H](COP(=O)(O)OP(=O)(O)OP(=O)(O)O)[C@@H](O)[C@H]1O; assay: purified protein, by the assay type; type: biochemical, Corynebacterium variabile; details: other: cva, 5 mM potassium mevalonate, pH 7.6, 30° C., Lineweaver-Burk plot
Procedure: as §1, §2, §3

Molecule: C[C@@](O)(CCOP(=O)(O)O)CC(=O)O [phosphomevalonate, mevalonate-5-phosphate]
- Product inhibition [1]: may cause product inhibition

B1: Nitrosopumilus maritimus mevalonate kinase (nmr), wild type, SEQ ID NO:9, N-terminal His-tag (Nitrosopumilus maritimus SCM1) (protein)
chain: MKSKASAPGKVILFGEHFVVYGVKAILCAINKRIAVTAEKIDERKISIKSNIGHLELEPNKPISEINSPLKPFYYLANKIIQDKNFGIKIDVESEIPLGVGLGSSSACCVAGAAAISNLFENNSKEEILKLAIEAEKTIFQNTSGADCTVCTFGGLMEYDKENGFSKIESEPNFHLVIANSNVEHSTESVVAGVRKFKKNNEAEFSKLCKDESHLIENVLELLKENNIRELGERVIKNQEYLERIGISNAKLREMIQTGQNSSFGAKITGAGGGGCIFALTDESNLENTIKEFKEKNHECFSVKIDFKGLDTF
- Km [2]: 1006 ± 20^ μM

B2: Methanosarcina mazei mevalonate kinase (mma), wild type, SEQ ID NO:12, N-terminal His-tag (Methanosarcina mazei Go1) (protein)
chain: MVSCSAPGKIYLFGEHAVVYGETAIACAVELRTRVRAELNDSITIQSQIGRTGLDFEKHPYVSAVIEKMRKSIPINGVFLTVDSDIPVGSGLGSSAAVTIASIGALNELFGFGLSLQEIAKLGHEIEIKVQGAASPTDTYVSTFGGVVTIPERRKLKTPDCGIVIGDTGVFSSTKELVANVRQLRESYPDLIEPLMTSIGKISRIGEQLVLSGDYASIGRLMNVNQGLLDALGVNILELSQLIYSARAAGAFGAKITGAGGGGCMVALTAPEKCNQVAEAVAGAGGKVTITKPTEQGLKVD
- Km [3]: 687 ± 9.3 µM

B3: Saccharomyces cerevisiae mevalonate kinase (sce, ERG12), wild type, NP_013935.1, N-terminal His-tag (Saccharomyces cerevisiae S288C) (protein)
chain: MSLPFLTSAPGKVIIFGEHSAVYNKPAVAASVSALRTYLLISESSAPDTIELDFPDISFNHKWSINDFNAITEDQVNSQKLAKAQQATDGLSQELVSLLDPLLAQLSESFHYHAAFCFLYMFVCLCPHAKNIKFSLKSTLPIGAGLGSSASISVSLALAMAYLGGLIGSNDLEKLSENDKHIVNQWAFIGEKCIHGTPSGIDNAVATYGNALLFEKDSHNGTINTNNFKFLDDFPAIPMILTYTRIPRSTKDLVARVRVLVTEKFPEVMKPILDAMGECALQGLEIMTKLSKCKGTDDEAVETNNELYEQLLELIRINHGLLVSIGVSHPGLELIKNLSDDLRIGSTKLTGAGGGGCSLTLLRRDITQEQIDSFKKKLQDDFSYETFETDLGGTGCCLLSAKNLNKDLKIKSLVFQLFENKTTTKQQIDDLLLPGNTNLPWTS
notes: His-tag (N); made in house; host or cells: E. coli BL21(DE3)
- Km [4]: 464 ± 7.6 µM

B4: Methanosaeta concilii mevalonate kinase (mcl), wild type, SEQ ID NO:6, N-terminal His-tag (Methanothrix soehngenii GP6) (protein)
chain: MTMASAPGKIILFGEHAVVSGTAALGGAIDLRARAIVQSLPGRILIETDDLSLRGFSLDLSTGEIRSASAAYATRYVSAVLKELGARDVRVMIESDIPPAAGLGSSASIVVATVAALNGHLGLELSQKEIAALSYRIEKEVQKGRGSPMDTALATYGGYQRIADDNQRLDLPPLEMVVGYTRLPHDTFSLVEKVQLLKERYPDLVGPIFQAIGAISERAAPLIREQRLKDLGELMDINHGLLEALGVGSRELSELVYAARNTGGALGAKLTGAGGGGCMIALPGMAGKDALLVALRQARGMAFAAMMGCEGVRLEVA
- Km [5]: 74 ± 1.4 µM

B5: mcl: mevalonate kinase derived from Methanosaeta concilii (SEQ ID NO:6), His-tagged purified enzyme (protein, listed as Methanosaeta concilii)
chain: MTMASAPGKIILFGEHAVVSGTAALGGAIDLRARAIVQSLPGRILIETDDLSLRGFSLDLSTGEIRSASAAYATRYVSAVLKELGARDVRVMIESDIPPAAGLGSSASIVVATVAALNGHLGLELSQKEIAALSYRIEKEVQKGRGSPMDTALATYGGYQRIADDNQRLDLPPLEMVVGYTRLPHDTFSLVEKVQLLKERYPDLVGPIFQAIGAISERAAPLIREQRLKDLGELMDINHGLLEALGVGSRELSELVYAARNTGGALGAKLTGAGGGGCMIALPGMAGKDALLVALRQARGMAFAAMMGCEGVRLEVA
modifications: His-tag
- enzyme activity, Control ([6]; Table 11 control without terpenyl diphosphate (methanol added)): 0.1482 dABS/min
- enzyme activity, Control ([6]; Table 12 control without DPM): 0.1373 dABS/min
- effect of 5 mM DMAPP on enzyme activity ([6]; in words): activated
- enzyme activity, Control (MeOH) ([7]; 70% methanol control for IPP): 0.1594 dABS/min
- enzyme activity, Control (H2O) ([7]; control for DMAPP): 0.154 dABS/min
- enzyme activity, pET21 system (C terminal Tag) [8]: 0.003 dABS/min/10 μl
- enzyme activity, pET28 system (N terminal Tag) [8]: 0.023 dABS/min/10 μl
- course of decrease in absorbance at 386 nm until PMK addition [9]: almost linear decrease in absorbance
- dABS/min at ATP 0.04 mM ([10]; ATP 0.04 mM, potassium mevalonate 5 mM, 10 μl enzyme in 1 ml, replicate values): 0.06058 dABS/min and 0.06029 dABS/min and 0.05985 dABS/min
- dABS/min at ATP 0.2 mM ([10]; ATP 0.2 mM, potassium mevalonate 5 mM, 10 μl enzyme in 1 ml, replicate values): 0.1223 dABS/min and 0.1222 dABS/min (2×)
- dABS/min at ATP 1 mM ([10]; ATP 1 mM, potassium mevalonate 5 mM, 10 μl enzyme in 1 ml, replicate values): 0.1584 dABS/min (2×) and 0.1585 dABS/min
- affinity to mevalonate and ATP compared with the other enzymes ([10]; in words): higher affinity to mevalonate and ATP than the other enzymes
- dABS/min at mev 0.002 mM ([10]; potassium mevalonate 0.002 mM, ATP 5 mM, 10 μl enzyme in 1 ml, replicate values): 0.02277 dABS/min and 0.02381 dABS/min and 0.02265 dABS/min
- dABS/min at mev 0.01 mM ([10]; potassium mevalonate 0.01 mM, ATP 5 mM, 10 μl enzyme in 1 ml, replicate values): 0.08427 dABS/min and 0.0843 dABS/min and 0.08431 dABS/min
- dABS/min at mev 0.04 mM ([10]; potassium mevalonate 0.04 mM, ATP 5 mM, 10 μl enzyme in 1 ml, replicate values): 0.1675 dABS/min and 0.1677 dABS/min and 0.1671 dABS/min
- dABS/min at mev 0.2 mM ([10]; potassium mevalonate 0.2 mM, ATP 5 mM, 10 μl enzyme in 1 ml, replicate values): 0.2123 dABS/min (2×) and 0.2125 dABS/min

B6: Corynebacterium variabile mevalonate kinase (cva), wild type, SEQ ID NO:3, N-terminal His-tag (Corynebacterium variabile) (protein)
chain: MAPHVGHGQTVAKIILFGEHSVVYGHPAIAMPLRTLRMIARVEPTDGPGTLSGLGWTGPITEAPARFSSIVKAAEVASDFAGHPGAGLNISTESEFPPERGLGSSAAAAGAVIRAVLDAFDTPATPRELFDLTQEAETVAHGRPSGLDAVATSAEAPVHFQAGQATDLEFSPDAWIVIADSGVEGSTRETVGHVRGRFEAEPDIITALLNRLGEITDEVVVDLRTGDVQGMGARMTEAHGILGQLGVSNTQLDALVTASLGAGALGAKLTGGGRGGCVIALAATEEDAENVEKALVDAGARGTWVHAPATGQMAGEVMQ
- Km [11]: 1347 ± 29^ μM
